Values quoted from earlier work as cited in patent US10663473B2, “Method of identifying a status of a mucosal intestinal epithelial barrier to improve treatment of inflammatory bowel disease” (Maximus Diagnostic Technologies LLC, priority 2016, dated 2020).

Test system: IBD patients
Details: all CD patients

B1: certolizumab pegol: anti-TNF agent, trade name Cimzia, sold by UCB S.A. (antibody, chains of the INN, looked up, V domains shown)
VH: EVQLVESGGGLVQPGGSLRLSCAASGYVFTDYGMNWVRQAPGKGLEWMGWINTYIGEPIYADSVKGRFTFSLDTSKSTAYLQMNSLRAEDTAVYYCARGYRSYAMDYWGQGTLVTVSS
VL: DIQMTQSPSSLSASVGDRVTITCKASQNVGTNVAWYQQKPGKAPKALIYSASFLYSGVPYRFSGSGSGTDFTLTISSLQPEDFATYYCQQYNIYPLTFGQGTKVEIK
modifications: Fab' PEG
- long-term clinical response rate: 50%
